Where a chain is given by its changes, count along the chain named.
T1: human MSLN-R1-his protein (human, UniProt Q13421 296-390)
T1 construct: Region 1 of human MSLN, His-tagged; also called human MSLN-R1 protein; hMSLN-R1-his; not shown: His tag
T1 chain: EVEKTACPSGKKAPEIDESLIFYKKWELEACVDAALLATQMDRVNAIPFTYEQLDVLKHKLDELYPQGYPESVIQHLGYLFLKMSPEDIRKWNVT

B1: S009-F2.47.1 (antibody, human IgG1, kappa, V domains shown)
VH: QVQLQQPGAELVKPGASVKLSCKASGYTFTSYWMHWVKQRPGQGLEWIGMIHPNSGSTNYNEKFKSKATLTVDKSSSTAYMQLSSLTSEDSAVYYCARPVVPYWYFDVWGTGTTVTVSS
VL: DIVMTQSQKFMSTTVGDRVSITCKASQNVGTAVAWYQQKPGQSPKLLIYSASNRYTGVPDRFTGSGSGTDFTLTISNMQSEDLADYFCQQSSSYPLTFGAGTKLELKR
notes: Human-murine chimeric antibody, human IgG1/kappa constant regions
B2: S009-F2.58.8 (antibody, human IgG1, kappa, V domains shown)
VH: QVQLLQSGAELAKPGASVKLSCKASGYTFTSYWVHWVKQRPGQGLEWIGYINPNSGYTKYNQKFKDKATLTADKSSSTAYMQLSSLTYEDSAVYYCADHYYGSSRDYFDYWGQGTTLTVSS
VL: QIVLTQSPAIMSASPGEKVTMTCSASSSVSYMYWYQQRPGSSPRLLIYDTSNLASGVPVRFSGSGSGTSYSLTISRMEAEDAATYYCQQWNSYPYTFGGGTKLEIKR
notes: as for B1
B3: S009-F1.59.1 (antibody, human IgG1, kappa, V domains shown)
VH: EVKLEGSGGGLVQPGGSMMLSCVATGFTFSSYWMNWVRQSPDRGLEWVAEIRLKSNGFAAFYAESVKGRFTISRDDSKSSVYLQMNNLRTEDTGIYYCTYFVHWGQGILVTVSE
VL: DIVLTQSPTSLAVSLGQRATISCRTSESVEYFGTILIQWYQQKPGQPPKLLIFGASNVESGVPARFSGSGSGTDFSLNIHPVEEEDIAMYFCQQNRKVPYTFGGGTTLELKR
notes: as for B1
B4: S009-F1.7.14 (antibody, human IgG1, kappa)
heavy: not shown
light: QIVLTQSPAIMSASPGEKVTISCSASSSVSYMYWYQQKPGSSPKPWISRTSNLASGVPARFSGSGSGTSYSLTISSMEAEDAATYYCQQYHSYPPTLGAGTKLELKRTVAAPSVFIFPPSDEQLKSGTASVVCLLNNFYPREAKVQWKVDNALQSGNSQESVTEQDSKDSTYSLSSTLTLSKADYEKHKVYACEVTHQGLSSPVTKSFNRGEC
notes: as for B1
B5: S009-F1.56.1 (antibody, human IgG1, kappa, V domains shown)
VH: EVQLQQSGAEVVKPGASVKLSCTASGFNIRHTYMHWVKQRPEQGLEWIGRIDPANGNTEYDPKFQGKATITADTSSNTAYLQLSSLTSEDTAVYYCARDGWYIDVWGAGTTVTVSS
VL: DIVMSQSPSSLAVSVGEKVTMSCKSSQSLLYSNNQKNYLAWYQQKPGQSPKLLIYWASTRESGVPDRFTGSGSGTDFTLTISSVKAEDLAVYYCQRYYSYPWTFGGGTKLEIKR
notes: as for B1
B6: S009-F1.2.12 (antibody, human IgG1, kappa, V domains shown)
VH: QVQLKQTGPGLVQPSQSLSITCTVSGFSLTNYAVHWVRQSPGKGLEWLGVIWSGGATDYNTVFISRLSISKDNSKSQVFFKVNSLQVDDTAIYYCARTGSGYAMDYWGQGTSVTVSS
VL: DIVLTQSPATLSVTPGDRVSLSCRTSHNVNTYLHWYQQKSHESPRLLIKYASQSISEIPSRFSGSGSGTNFTLSINSVETEDFGMYFCHQTNRWPLTFGAGTKLELKR
B7: S009-F1.57.1 (antibody, human IgG1, kappa, V domains shown)
VH: EAQLQQSGAVFVKPGASVKLSCTASGFSSKDIFLHWVKQRPEQGLEWIGRIDPASDNTIYDPKFQDRATITSDRSSNTAYLQFSSLTSEDTAVYFCLYFDFWGQGTTLTVSS
VL: DIVMTQATPSISVTPGESVSISCRSSESLLHSNGNTYLYWFLQRPGQSPQLLIYRMSNLASGVPDRFSVSGSGTAFTLRISRVEAEDVGVYYCMQHLEYPLTFGAGTKLELKR
notes: as for B1
B8: S009-F1.62.9 (antibody, human IgG1, kappa, V domains shown)
VH: EVQLQQSGADLVKPGASVKLSCTVFGLNFKDTFMHWVRQRPEQGLEWIGRIDPANDNSIYGPKFQDKATITADTSSNTAYLHLSSLTSEDTAVYYCLYFDNWGHGTTLTVSS
VL: B7 VL with T8A, P9S, I11E, S12P, S26D, E27K, N35H, T36N, Q50H, V69G
notes: as for B1

Each binder was assayed against T2, human MSLN-FL-his protein (human, UniProt Q13421 296-580) (assay: ELISA, coated MSLN full-length;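 also: binding of chimeric antibodies to plate-bound antigen, read by TMB colour after acid stop, antibody incubated 2 h at 37 °C, negative control antibody run alongside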).
T2 construct: also called human MSLN full-length protein; hMSLN-FL-his; not shown: His tag

OD450 at 0.0001 nM [OD450] | OD450 at 0.001 nM [OD450] | OD450 at 0.01 nM [OD450] | OD450 at 0.1 nM [OD450] | OD450 at 1 nM [OD450] | OD450 at 10 nM [OD450] | OD450 at 100 nM [OD450] | OD450 at none (no antibody) [OD450] | Binder
0.06 | 0.1 | 0.45 | 1.78 | 2.31 | 2.4 | 2.57 | 0.06 | B1
0.05 | 0.06 | 0.09 | 0.4 | 1.56 | 2.47 | 2.87 | 0.06 | B2

These binders were tested against T3, human MSLN-R3-his protein (human, UniProt Q13421 487-598) (assay: ELISA, coated MSLN-R3).
T3 construct: Region 3 of human MSLN, His-tagged; also called human MSLN-R3 protein; hMSLN-R3-his; not shown: His tag
T3 sequence (Q13421 495-606): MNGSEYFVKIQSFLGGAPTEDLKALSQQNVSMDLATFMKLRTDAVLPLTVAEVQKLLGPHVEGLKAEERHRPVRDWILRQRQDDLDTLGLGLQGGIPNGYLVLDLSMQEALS

OD450 at 0.0001 nM [OD450] | OD450 at 0.001 nM [OD450] | OD450 at 0.01 nM [OD450] | OD450 at 0.1 nM [OD450] | OD450 at 1 nM [OD450] | OD450 at 10 nM [OD450] | OD450 at 100 nM [OD450] | OD450 at none (no antibody) [OD450] | Binder
0.05 | 0.06 | 0.17 | 1 | 1.62 | 2.05 | 2.51 | 0.05 | B3
0.05 | 0.05 | 0.04 | 0.05 | 0.05 | 0.07 | 0.1 | 0.05 | B4
0.05 | 0.04 | 0.04 | 0.05 | 0.04 | 0.05 | 0.06 | 0.06 | B5
0.05 | 0.06 | 0.05 | 0.05 | 0.05 | 0.06 | 0.06 | 0.06 | B6
0.05 | 0.05 | 0.06 | 0.19 | 0.86 | 1.81 | 2.25 | 0.05 | B7
0.04 | 0.06 | 0.07 | 0.26 | 1.06 | 2 | 2.32 | 0.05 | B8

Each binder was assayed against T4, human MSLN-R3-3 polypeptide (human) (assay: ELISA, coated MSLN-R3-3;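 also: chimeric antibodies in serial dilution bound to plate-coated antigen for 2 h at 37 °C, with a negative control antibody alongside, and TMB colour development stopped with HCl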).
T4 construct: also called human MSLN-R3-3 protein; hMSLN-R3-3
Experimental: (§1) The plate was sealed with a plastic film and incubated at 4° C. overnight. The next day, the plate was washed twice with PBST, and a blocking buffer [PBS+2% (w/w) BSA] was added for blocking at room temperature for 2 h. The blocking buffer was discarded, and a chimeric antibody or negative control antibody serially diluted from 100 nM was added at 50 μL/well. After incubation at 37° C. for 2 h, the plate was washed 3 times with PBST. […] After incubation at 37° C. for 2 h, the plate was washed 5 times with PBST. A TMB substrate was added at 50 μL/well for incubation at room temperature for 5-10 min, and then a stop solution (1.0 N HCl) was added at 50 μL/well.

OD450 at 0.0001 nM [OD450] | OD450 at 0.001 nM [OD450] | OD450 at 0.01 nM [OD450] | OD450 at 0.1 nM [OD450] | OD450 at 1 nM [OD450] | OD450 at 10 nM [OD450] | OD450 at 100 nM [OD450] | OD450 at none (no antibody) [OD450] | Binder
0.06 | 0.06 | 0.06 | 0.06 | 0.07 | 0.07 | 0.18 | 0.07 | B3
0.07 | 0.07 | 0.07 | 0.07 | 0.07 | 0.13 | 0.72 | 0.07 | B4
0.07 | 0.07 | 0.08 | 0.06 | 0.07 | 0.08 | 0.12 | 0.07 | B5
0.06 | 0.08 | 0.06 | 0.07 | 0.07 | 0.08 | 0.16 | 0.08 | B6
0.06 | 0.07 | 0.07 | 0.07 | 0.07 | 0.07 | 0.11 | 0.07 | B7
0.06 | 0.07 | 0.07 | 0.07 | 0.06 | 0.07 | 0.13 | 0.07 | B8

Each binder was assayed against T5, human MSLN-R2-his protein (human, UniProt Q13421 391-486) (assay: ELISA, coated MSLN-R2;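 also: chimeric antibodies bound to blocked coated plates for 2 h at 37 °C, TMB colour development stopped with HCl, with a negative control antibody for comparison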).
T5 construct: Region 2 of human MSLN, His-tagged; also called human MSLN-R2 protein; hMSLN-R2-his; not shown: His tag
T5 sequence (Q13421 other isoform, or with tags, fused parts or gaps): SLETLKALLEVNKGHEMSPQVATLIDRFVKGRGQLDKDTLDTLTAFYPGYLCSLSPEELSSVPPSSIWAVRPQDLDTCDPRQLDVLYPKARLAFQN

OD450 at 0.0001 nM [OD450] | OD450 at 0.001 nM [OD450] | OD450 at 0.01 nM [OD450] | OD450 at 0.1 nM [OD450] | OD450 at 1 nM [OD450] | OD450 at 10 nM [OD450] | OD450 at 100 nM [OD450] | OD450 at none (no antibody) [OD450] | Binder
0.03 | 0.04 | 0.06 | 0.05 | 0.04 | 0.05 | 0.06 | 0.04 | B3
0.04 | 0.04 | 0.05 | 0.04 | 0.05 | 0.05 | 0.11 | 0.05 | B4
0.04 | 0.05 | 0.19 | 0.88 | 2.04 | 2.31 | 2.62 | 0.05 | B5
0.05 | 0.05 | 0.05 | 0.06 | 0.1 | 0.3 | 1.44 | 0.05 | B6
0.05 | 0.04 | 0.04 | 0.07 | 0.04 | 0.05 | 0.11 | 0.05 | B7
0.03 | 0.05 | 0.04 | 0.06 | 0.04 | 0.05 | 0.06 | 0.04 | B8

Target: T1, human MSLN-R1-his protein
Assay: ELISA, coated MSLN-R1;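 also: serially diluted chimeric antibodies bound to the coated, BSA-blocked plate for 2 h at 37 °C, with TMB colour read after acid stop and a negative control antibody alongside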
Experimental: as §1

OD450 at 0.0001 nM [OD450] | OD450 at 0.001 nM [OD450] | OD450 at 0.01 nM [OD450] | OD450 at 0.1 nM [OD450] | OD450 at 1 nM [OD450] | OD450 at 10 nM [OD450] | OD450 at 100 nM [OD450] | OD450 at none (no antibody) [OD450] | Binder
0.05 | 0.05 | 0.05 | 0.05 | 0.09 | 0.23 | 0.36 | 0.06 | B1
0.05 | 0.05 | 0.05 | 0.06 | 0.13 | 0.43 | 0.83 | 0.06 | B2

Reference: patent publication US20250250357A1 (NANJING ZAIMING PHARMACEUTICAL, published 2025)
